Measured values reported in the supplement of paper PMC6757056.
± gives the standard deviation of the averaged measurements.

B1: library; a variant is named by its letters at N, in order (parent)
chain: GCUGUCACCGGUGUAUUACCCUAGUGGUCGACCGGUCUGAUGAGUCUNNNNNNAGACGAAACAGC

Key:
hypoxanthine [1] = variants of: B1; assay: FACS-Seq fitted mean relative fluorescence mCherry/BFP without ligand (log10 relative fluorescence); ligand: hypoxanthine (xanthine aptamer); higher = higher reporter protein expression; settings: HEK293T, ligand present: no
Procedure, shortened: (§1)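 Fluorescence values are fitted normal means of bin counts along the mCherry/BFP axis. HEK293T libraries lentivirally carrying the ribozyme switch in an mCherry reporter, with an EF1α-BFP marker, were enriched, exposed to ligand or not for 48 h, and sorted into 6 bins. Genomic DNA per bin was PCR-amplified, barcoded and run on MiSeq. Means of log10(mCherry/BFP) were scaled to five spiked-in control ribozymes.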

hypoxanthine [2] = variants of: B1; assay: normalized RNA/DNA level with ligand (relative to sTRSVctl = 100) (log10 (% of sTRSVctl)); ligand: hypoxanthine (xanthine aptamer); higher = less ribozyme self-cleavage, higher mRNA level; settings: ligand concentration (+) RNA-Seq: 5 mM, HEK293T, reporter: mCherry (pCS4076), ligand present: yes
Procedure, shortened: (§2)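 Ribozyme switch library plasmids with mCherry reporters (eGFP in certain ligand experiments) went into HEK293T cells at 4 µg per 6-well well. Where ligand was used, it was applied 1 h before transfection, and total RNA was extracted with EDTA 72 h later for reverse transcription, amplification, barcoding and sequencing. RNA level is the RNA-to-DNA read ratio normalized to a spiked-in non-cleaving sequence or to the leading sequences, then scaled and log-transformed. Scaling was ×100 with log10, the leading set comprised 25 sequences, and the cutoff was ≥100 DNA reads.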

hypoxanthine [3] = variants of: B1; assay: normalized RNA/DNA level without ligand (relative to sTRSVctl = 100) (log10 (% of sTRSVctl)); ligand: hypoxanthine (xanthine aptamer); higher = less ribozyme self-cleavage, higher mRNA level; settings: HEK293T, reporter: mCherry (pCS4076), ligand present: no
Procedure, shortened: as §2

hypoxanthine [4] = variants of: B1; assay: FACS-Seq fitted mean relative fluorescence mCherry/BFP with ligand (log10 relative fluorescence); ligand: hypoxanthine (xanthine aptamer); ligand concentration (+) FACS-Seq: 5 mM; higher = higher reporter protein expression; settings: HEK293T, ligand present: yes
Procedure, shortened: as §1

Row | Variant | FACS-Seq fitted mean (log10) (hypoxanthine [1]) | normalized RNA/DNA level with ligand (log10) (hypoxanthine [2]) | normalized RNA/DNA level without ligand (log10) (hypoxanthine [3]) | FACS-Seq fitted mean (log10) (hypoxanthine [4])
1 | UGUACA | 0.848 ± 0.044 | 1.919 ± 0.018 | 1.85 ± 0.066 | 0.78 ± 0.076
2 | UGUACU | 0.71 ± 0.019 | 1.933 ± 0.012 | 1.8501 ± 0.00062 | 0.66 ± 0.018
3 | AGGAAC | 0.573 ± 0.093 | 1.91 ± 0.042 | 1.66 ± 0.039 | 0.568 ± 0.099
4 | AGGAAG | -0.0152 ± 0.00091 | 1.63 ± 0.038 | 1.11 ± 0.055 | 0.161 ± 0.026
5 | AGGAAA | 0.102 ± 0.031 | 1.87 ± 0.019 | 1.56 ± 0.037 | 0.42 ± 0.058
6 | CGGAAU | 0.0719 ± 0.0065 | 1.81 ± 0.052 | 1.42 ± 0.016 | 0.548 ± 0.059
7 | CGGAAA | 0.32 ± 0.016 | 1.87 ± 0.025 | 1.43 ± 0.051 | 0.587 ± 0.016
8 | CGGAAG | 0.266 ± 0.007 | 1.905 ± 0.011 | 1.734 ± 0.0046 | 0.361 ± 0.062
9 | GGGCGG | 0.372 ± 0.034 | 1.9325 ± 0.00079 | 1.577 ± 0.0083 | 0.586 ± 0.017
10 | AGGGAA | 0.524 ± 0.1 | 1.86 ± 0.025 | 1.68 ± 0.045 | 0.684 ± 0.034
11 | AGGGAC | 0.0327 ± 0.041 | 1.916 ± 0.017 | 1.7 ± 0.018 | -0.137 ± 0.14
12 | AGGGAG | -0.123 ± 0.041 | 1.78 ± 0.086 | 1.4 ± 0.042 | 0.0991 ± 0.022
13 | AGGACG | 0.233 ± 0.013 | 1.784 ± 0.01 | 1.37 ± 0.036 | 0.567 ± 0.0099
14 | AGGACU | 0.894 ± 0.099 | 1.94 ± 0.058 | 1.802 ± 0.0094 | 0.734 ± 0.031
15 | AGGACC | 0.421 ± 0.0047 | 1.94 ± 0.042 | 1.88 ± 0.028 | 0.565 ± 0.034
16 | GGUAUG | -0.113 ± 0.019 | 1.73 ± 0.052 | 1.32 ± 0.038 | 0.434 ± 0.035
17 | UGUAGA | 0.133 ± 0.057 | 1.93 ± 0.043 | 1.55 ± 0.049 | 0.19 ± 0.011
18 | CGUCAA | 0.13 ± 0.025 | 1.96 ± 0.023 | 1.807 ± 0.016 | 0.3 ± 0.077

Row | Variant | FACS-Seq fitted mean (log10) (hypoxanthine [1]) | normalized RNA/DNA level with ligand (log10) (hypoxanthine [2]) | normalized RNA/DNA level without ligand (log10) (hypoxanthine [3]) | FACS-Seq fitted mean (log10) (hypoxanthine [4])
19 | CGGCAU | -0.119 ± 0.0088 | 1.9 ± 0.037 | 1.56 ± 0.1 | 0.0858 ± 0.0049
20 | GGGCAG | 0.0036 ± 0.061 | 1.881 ± 0.013 | 1.5894 ± 0.0015 | 0.434 ± 0.012
21 | GGGCAU | -0.045 ± 0.015 | 1.933 ± 0.012 | 1.83 ± 0.075 | 0.103 ± 0.018
22 | GGGCAA | 0.0453 ± 0.045 | 1.963 ± 0.0095 | 1.783 ± 0.013 | 0.266 ± 0.015
23 | UGUCCU | 0.984 ± 0.042 | 1.95 ± 0.091 | 1.93 ± 0.039 | 0.87 ± 0.054
24 | UGUCCC | 0.383 ± 0.13 | 2 ± 0.12 | 1.935 ± 0.013 | 0.29 ± 0.068
25 | AGUACG | 0.173 ± 0.058 | 1.84 ± 0.022 | 1.38 ± 0.052 | 0.423 ± 0.086
26 | GGGCCG | -0.0164 ± 0.068 | 1.98 ± 0.05 | 1.923 ± 0.0046 | 0.175 ± 0.031
27 | GGGCCA | 0.693 ± 0.015 | 1.9809 ± 0.00094 | 1.99 ± 0.032 | 0.808 ± 0.082
28 | AGGCAG | 0.337 ± 0.023 | 1.82 ± 0.037 | 1.45 ± 0.0028 | 0.534 ± 0.015
29 | AGGCAU | -0.0543 ± 0.062 | 1.92 ± 0.067 | 1.8 ± 0.047 | 0.027 ± 0.034
30 | CGGUGU | 0.576 ± 0.076 | 1.965 ± 0.011 | 1.85 ± 0.031 | 0.586 ± 0.029
31 | AGGUCG | 0.151 ± 0.023 | 1.861 ± 0.0041 | 1.53 ± 0.092 | 0.463 ± 0.049
32 | AGGUCA | 0.881 ± 0.045 | 1.94 ± 0.071 | 1.68 ± 0.052 | 0.729 ± 0.035
33 | GGUCCA | 0.354 ± 0.029 | 1.96 ± 0.023 | 1.94 ± 0.056 | 0.465 ± 0.041
34 | CGUACC | 0.313 ± 0.054 | 1.98 ± 0.065 | 1.89 ± 0.021 | 0.536 ± 0.047
35 | CGUACA | 0.575 ± 0.038 | 1.92 ± 0.061 | 1.72 ± 0.037 | 0.49 ± 0.085
36 | CGGAUU | -0.13 ± 0.0099 | 1.94 ± 0.045 | 1.744 ± 0.0072 | 0.244 ± 0.014
